# Columns and labels:
# HLA-A*24:03 = assay: IEDB peptide-MHC binding, purified MHC/competitive/fluorescence; filed as Kd, often an IC50 or EC50 that approximates it; ≥ and ≤ were set here for values at or beyond the usual limits of such assays; conditions: source organism: Burkholderia orbicola
# HLA-B*18:01 [1] = assay: as above; conditions: source organism: Burkholderia orbicola
# HLA-A*29:02 = assay: as above; conditions: source organism: Burkholderia orbicola
# HLA-B*39:01 = assay: as above; conditions: source organism: Burkholderia orbicola
# HLA-A*23:01 = assay: as above; conditions: source organism: Burkholderia orbicola
# HLA-B*46:01 [2] = assay: as above; conditions: source organism: Burkholderia orbicola
# HLA-B*27:03 = assay: as above; conditions: source organism: Burkholderia orbicola
# HLA-A*02:03 = assay: as above; conditions: source organism: Burkholderia orbicola
# HLA-A*03:01 [3] = assay: as above; conditions: source organism: Burkholderia orbicola
# HLA-A*68:02 = assay: as above; conditions: source organism: Burkholderia orbicola
# HLA-B*15:01 [4] = assay: as above; conditions: source organism: Burkholderia orbicola
# HLA-A*02:01 [5] = assay: as above; conditions: source organism: Burkholderia orbicola
# HLA-B*51:01 = assay: as above; conditions: source organism: Burkholderia orbicola
# HLA-A*02:16 = assay: as above; conditions: source organism: Burkholderia orbicola
# HLA-B*57:01 = assay: as above; conditions: source organism: Burkholderia orbicola
# HLA-A*02:12 = assay: as above; conditions: source organism: Burkholderia orbicola
# HLA-A*69:01 [6] = assay: as above; conditions: source organism: Burkholderia orbicola
# HLA-A*26:01 = assay: as above; conditions: source organism: Burkholderia orbicola
# HLA-A*02:11 = assay: as above; conditions: source organism: Burkholderia orbicola
# HLA-A*02:19 = assay: as above; conditions: source organism: Burkholderia orbicola
# HLA-B*15:17 = assay: as above; conditions: source organism: Burkholderia orbicola
# HLA-A*24:02 = assay: IEDB peptide-MHC binding, purified MHC/direct/fluorescence; filed as Kd, often an IC50 or EC50 that approximates it; ≥ and ≤ were set here for values at or beyond the usual limits of such assays
# HLA-B*08:01 = assay: as above; conditions: source organism: Influenza A virus (A/WSN/1933(H1N1))
# HLA-A*01:01 = assay: as above
# HLA-B*46:01 [7] = assay: as above
# HLA-B*40:01 = assay: as above
# HLA-A*03:01 [8] = assay: as above
# HLA-B*15:01 [9] = assay: as above
# HLA-A*11:01 = assay: as above
# HLA-B*58:01 = assay: as above
# HLA-B*07:02 = assay: as above
# HLA-B*27:05 = assay: as above
# HLA-B*44:02 = assay: as above; conditions: source organism: Influenza A virus (A/WSN/1933(H1N1))
# HLA-A*31:01 = assay: as above; conditions: source organism: Influenza A virus (A/equine/Massachussetts/213/2003(H3N8))
# HLA-B*18:01 [10] = assay: as above; conditions: source organism: Influenza A virus (A/equine/Massachussetts/213/2003(H3N8))
# HLA-B*15:09 = assay: as above; conditions: source organism: Influenza A virus(A/swine/Henan/8/2004(H9N2))
# HLA-A*02:01 [11] = assay: as above; conditions: source organism: Influenza A virus (A/equine/Massachussetts/213/2003(H3N8))
# HLA-A*69:01 [12] = assay: as above; conditions: source organism: Influenza A virus (A/equine/Massachussetts/213/2003(H3N8))
# [13] = source organism: Influenza A virus (A/WSN/1933(H1N1))
# [14] = source organism: Influenza A virus (A/equine/Massachussetts/213/2003(H3N8))
sequence,measurement,setting,value
RIEQLYPFA,Kd,HLA-A*24:03,≥ 20 µM
same,Kd,HLA-B*18:01 [1],≥ 20 µM
same,Kd,HLA-A*29:02,≥ 20 µM
same,Kd,HLA-B*39:01,≥ 20 µM
same,Kd,HLA-A*23:01,≥ 20 µM
same,Kd,HLA-B*46:01 [2],≥ 20 µM
same,Kd,HLA-B*27:03,≥ 20 µM
same,Kd,HLA-A*02:03,≥ 20 µM
same,Kd,HLA-A*03:01 [3],≥ 20 µM
same,Kd,HLA-A*68:02,≥ 20 µM
same,Kd,HLA-B*15:01 [4],≥ 20 µM
same,Kd,HLA-A*02:01 [5],≥ 20 µM
same,Kd,HLA-B*51:01,≥ 20 µM
same,Kd,HLA-A*02:16,0.292 µM
same,Kd,HLA-B*57:01,≥ 20 µM
same,Kd,HLA-A*02:12,≥ 20 µM
same,Kd,HLA-A*69:01 [6],≥ 20 µM
same,Kd,HLA-A*26:01,≥ 20 µM
same,Kd,HLA-A*02:11,≥ 20 µM
same,Kd,HLA-A*02:19,≥ 20 µM
same,Kd,HLA-B*15:17,≥ 20 µM
NLEPGTFDL,Kd,HLA-A*24:02; [13],≥ 20 µM
same,Kd,HLA-B*08:01,≥ 20 µM
same,Kd,HLA-A*01:01; [13],≥ 20 µM
same,Kd,HLA-B*46:01 [7]; [13],≥ 20 µM
same,Kd,HLA-B*40:01; [13],≥ 20 µM
same,Kd,HLA-A*03:01 [8]; [13],≥ 20 µM
same,Kd,HLA-B*15:01 [9]; [13],≥ 20 µM
same,Kd,HLA-A*11:01; [13],≥ 20 µM
same,Kd,HLA-B*58:01; [13],≥ 20 µM
same,Kd,HLA-B*07:02; [13],≥ 20 µM
same,Kd,HLA-B*27:05; [13],≥ 20 µM
same,Kd,HLA-B*44:02,≥ 20 µM
ILKGKFQTA,Kd,HLA-A*31:01,≥ 20 µM
same,Kd,HLA-A*24:02; [14],≥ 20 µM
same,Kd,HLA-B*18:01 [10],≥ 20 µM
same,Kd,HLA-A*01:01; [14],≥ 20 µM
same,Kd,HLA-B*46:01 [7]; [14],≥ 20 µM
same,Kd,HLA-B*40:01; [14],≥ 20 µM
same,Kd,HLA-B*15:09,≥ 20 µM
same,Kd,HLA-A*03:01 [8]; [14],≥ 20 µM
same,Kd,HLA-B*15:01 [9]; source organism: Influenza A virus (A/Puerto Rico/8/34/Mount Sinai(H1N1)),5.72 µM
same,Kd,HLA-A*02:01 [11],≥ 20 µM
same,Kd,HLA-A*11:01; [14],≥ 20 µM
same,Kd,HLA-B*58:01; [14],≥ 20 µM
same,Kd,HLA-B*07:02; [14],≥ 20 µM
same,Kd,HLA-B*27:05; [14],≥ 20 µM
same,Kd,HLA-A*69:01 [12],≥ 20 µM

# — the Immune Epitope Database (IEDB)
